# Measurements: patent US20220402983A1 (Janssen / Centocor, published 2022)
# Bridges are numbered along the chain shown (N, C = ends). [ ]: non-standard residue; d: D form. Trp(7-Me) = Cc1cccc2c(C[C@H](N)C(=O)O)c[nH]c12; 2Nal = N[C@@H](Cc1ccc2ccccc2c1)C(=O)O; AEF = NCCOc1ccc(C[C@H](N)C(=O)O)cc1; αMeF = C[C@](N)(Cc1ccccc1)C(=O)O; Pen = CC(C)(S)[C@H](N)C(=O)O; αMeK = C[C@](N)(CCCCN)C(=O)O; Thp = NC1(C(=O)O)CCOCC1
# B1: Compound No. 76 (peptide)
# peptide: Ac-[Pen]NT[Trp(7-Me)]K(Ac)[Pen][AEF][2Nal][αMeK]K(Ac)N[αMeF]-NH2
# modifications: disulfide 1-6
# SMILES: CC(=O)NCCCC[C@@H]1NC(=O)[C@H](Cc2c[nH]c3c(C)cccc23)NC(=O)[C@H]([C@@H](C)O)NC(=O)[C@H](CC(N)=O)NC(=O)[C@@H](NC(C)=O)C(C)(C)SSC(C)(C)[C@@H](C(=O)N[C@@H](Cc2ccc(OCCN)cc2)C(=O)N[C@@H](Cc2ccc3ccccc3c2)C(=O)N[C@@](C)(CCCCN)C(=O)N[C@@H](CCCCNC(C)=O)C(=O)N[C@@H](CC(N)=O)C(=O)N[C@@](C)(Cc2ccccc2)C(N)=O)NC1=O
# B2: Compound No. 92 (peptide)
# peptide: Ac-[dR][Pen]NT[Trp(7-Me)]K(Ac)[Pen][AEF][2Nal][Thp]EN[Thp]-NH2
# modifications: disulfide 2-7
# SMILES: CC(=O)NCCCC[C@@H]1NC(=O)[C@H](Cc2c[nH]c3c(C)cccc23)NC(=O)[C@H]([C@@H](C)O)NC(=O)[C@H](CC(N)=O)NC(=O)[C@@H](NC(=O)[C@@H](CCCNC(=N)N)NC(C)=O)C(C)(C)SSC(C)(C)[C@@H](C(=O)N[C@@H](Cc2ccc(OCCN)cc2)C(=O)N[C@@H](Cc2ccc3ccccc3c2)C(=O)NC2(C(=O)N[C@@H](CCC(=O)O)C(=O)N[C@@H](CC(N)=O)C(=O)NC3(C(N)=O)CCOCC3)CCOCC2)NC1=O
# B3: Compound No. 77 (peptide)
# peptide: Ac-[dR][Pen]NT[Trp(7-Me)]K(Ac)[Pen][AEF][2Nal][Thp]EN[αMeF]-NH2
# modifications: disulfide 2-7
# SMILES: CC(=O)NCCCC[C@@H]1NC(=O)[C@H](Cc2c[nH]c3c(C)cccc23)NC(=O)[C@H]([C@@H](C)O)NC(=O)[C@H](CC(N)=O)NC(=O)[C@@H](NC(=O)[C@@H](CCCNC(=N)N)NC(C)=O)C(C)(C)SSC(C)(C)[C@@H](C(=O)N[C@@H](Cc2ccc(OCCN)cc2)C(=O)N[C@@H](Cc2ccc3ccccc3c2)C(=O)NC2(C(=O)N[C@@H](CCC(=O)O)C(=O)N[C@@H](CC(N)=O)C(=O)N[C@@](C)(Cc3ccccc3)C(N)=O)CCOCC2)NC1=O
# Biological target: T1, human IL-23R (interleukin-23 receptor) (human, UniProt Q5VWK5 24-629)
# T1 sequence (looked up): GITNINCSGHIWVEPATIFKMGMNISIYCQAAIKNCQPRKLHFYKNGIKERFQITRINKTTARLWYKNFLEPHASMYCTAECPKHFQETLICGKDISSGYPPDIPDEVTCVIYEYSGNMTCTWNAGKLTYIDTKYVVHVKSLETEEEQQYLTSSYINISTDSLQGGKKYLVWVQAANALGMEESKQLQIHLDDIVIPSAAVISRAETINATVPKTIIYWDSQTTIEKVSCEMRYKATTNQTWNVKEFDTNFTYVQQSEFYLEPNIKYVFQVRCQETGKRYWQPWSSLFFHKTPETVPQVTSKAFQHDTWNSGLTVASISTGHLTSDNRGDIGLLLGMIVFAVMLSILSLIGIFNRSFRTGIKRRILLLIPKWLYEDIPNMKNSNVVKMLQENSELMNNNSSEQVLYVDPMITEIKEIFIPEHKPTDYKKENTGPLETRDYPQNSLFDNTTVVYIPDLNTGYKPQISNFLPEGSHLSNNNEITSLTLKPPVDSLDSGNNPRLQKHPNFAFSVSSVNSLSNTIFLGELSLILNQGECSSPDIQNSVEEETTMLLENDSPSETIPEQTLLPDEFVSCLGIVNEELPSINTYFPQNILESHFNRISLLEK
# Test: cell-based or functional assay
row,Binder,"NK Cell Assay (nM), IC50, IFN-gamma after IL-23 and IL-18 [nM]"
1,B1,4.01
2,B2,1.46
3,B3,2.33

# Biological target: T1, human IL-23R (interleukin-23 receptor)
# Test: cell-based or functional assay
# Remark: another data set of the same source
Binder,PBMC pSTAT3 IC50 (nM),"pStat3 HTRF (nM), IC50, DB cells IL23R pSTAT3 cell assay [nM]"
B1,11,1.5
B2,3.3,0.206
B3,6.4,0.353
